{
  "source": "paper PMC4911921",
  "about": "“Hfq assists small RNAs in binding to the coding sequence of ompD mRNA and in rearranging its structure”",
  "binders": {"B1": {"name": "ompD-93-187 (structured_RNA)", "RNA": "GGCAGUGACUUCCCUGUUGGCAGCAGGCGUUGUAAAUGCAGCCGAGGUAUAUAACAAAGACGGCAAUAAACUGGAUCUGUACGGUAAAGUUCACG"}, "B2": {"name": "ompD-187 ARN-3 (structured_RNA)", "RNA": "GCCAUUGACAAACGCCUCGUUUAACAAUGGUUGAGGAAACACGCUUUGAUAUUAUAAGGAUUAUUAAAAUGAAACUUAAGUUAGUGGCAGUGGCAGUGACUUCCCUGUUGGCAGCAGGCGUUGUAAAUGCAGCCGAGGUAUAUAACAAAGACGGCAAUAAACUGGAUCUGUACGGUAAAGUUCACG"}, "B3": {"name": "ompD-35-131 (structured_RNA)", "RNA": "GGAAACACGCUAAGAAAAUUAUAAGGAUUAUUAAAAUGAAACUUAAGUUAGUGGCAGUGGCAGUGACUUCCCUGUUGGCAGCAGGCGUUGUAAAUGC"}, "B4": {"name": "ompD-1-95 (structured_RNA)", "RNA": "GCCAUUGACAAACGCCUCGUUUAACAAUGGUUGAGGAAACACGCUAAGAAAAUUAUAAGGAUUAUUAAAAUGAAACUUAAGUUAGUGGCAGUGGC"}, "B5": {"name": "ompD-187 (structured_RNA)", "RNA": "GCCAUUGACAAACGCCUCGUUUAACAAUGGUUGAGGAAACACGCUAAGAAAAUUAUAAGGAUUAUUAAAAUGAAACUUAAGUUAGUGGCAGUGGCAGUGACUUCCCUGUUGGCAGCAGGCGUUGUAAAUGCAGCCGAGGUAUAUAACAAAGACGGCAAUAAACUGGAUCUGUACGGUAAAGUUCACG"}, "B6": {"name": "ompD-187 ARN-5 (structured_RNA)", "RNA": "B5 RNA with A148G, A150G"}, "B7": {"name": "ompD-187 ARN-2 (structured_RNA)", "RNA": "B5 RNA with A34U, G35U, A38U"}, "B8": {"name": "ompD-187 ARN-1 (structured_RNA)", "RNA": "B5 RNA with A23C, A24G"}, "B9": {"name": "ompD-187 ARN-5+6 (structured_RNA)", "RNA": "B5 RNA with A148G, A150G, A157C, A160U, A161C"}, "B10": {"name": "ompD-187 ARN-6 (structured_RNA)", "RNA": "B5 RNA with A157C, A160U, A161C"}, "B11": {"name": "ompD-187-SL2mut (structured_RNA)", "RNA": "GGCCAUUGACAAACGCCUCGUUUAACAAUGGUUGAGGAAACACGCUUUGAUAAUUCUAGGGCUUAUUUUUAUGAUGCUUAAGUUAGUGGCAGUGGCAGUGACUUCCCUGUUGGCAGCAGGCGUUGUAAAUGCAGCCGAGGUAUAUAACAAAGACGGCAAUAAACUGGAUCUGUACGGUAAAGUUCACG"}},
  "key": {"Hfq wt [1]": {"target": "T1, Hfq wt (Salmonella, UniProt P0A1R0 1-102)", "assay": "EMSA; 24 mM Tris-HCl pH 7.5, 50 mM NaCl, 50 mM NH4Cl, 50 mM KCl, 0.5 mM EDTA, 2 mM MgCl2, 5% glycerol, room temperature, 1 h; 6% native gel in 1x THEM2", "conditions": "protein: recombinant, tags: C-terminal His6, chain copies: 6, label: 5'-32P"}, "Hfq wt [2]": {"target": "T1, Hfq wt", "assay": "EMSA; 3 nM Hfq hexamer; 24 mM Tris-HCl pH 7.5, 50 mM NaCl, 50 mM NH4Cl, 50 mM KCl, 0.5 mM EDTA, 2 mM MgCl2, 5% glycerol, room temperature, 1 h; 6% native gel in 1x THEM2", "conditions": "protein: recombinant; tags: C-terminal His6; chain copies: 6; label: 32P"}, "Hfq wt [3]": {"target": "T1, Hfq wt", "assay": "EMSA; specific site (Ks); 24 mM Tris-HCl pH 7.5, 50 mM NaCl, 50 mM NH4Cl, 50 mM KCl, 0.5 mM EDTA, 2 mM MgCl2, 5% glycerol, room temperature, 1 h; 6% native gel in 1x THEM2", "conditions": "protein: recombinant, tags: C-terminal His6, chain copies: 6, label: 5'-32P"}, "Hfq wt [4]": {"target": "T1, Hfq wt", "assay": "EMSA; two nonspecific sites (Kns); 24 mM Tris-HCl pH 7.5, 50 mM NaCl, 50 mM NH4Cl, 50 mM KCl, 0.5 mM EDTA, 2 mM MgCl2, 5% glycerol, room temperature, 1 h; 6% native gel in 1x THEM2", "conditions": "protein: recombinant, tags: C-terminal His6, chain copies: 6, label: 5'-32P"}, "Hfq R16A [5]": {"target": "T2, Hfq R16A (Salmonella, UniProt P0A1R0 1-102, R16A)", "assay": "EMSA; 24 mM Tris-HCl pH 7.5, 50 mM NaCl, 50 mM NH4Cl, 50 mM KCl, 0.5 mM EDTA, 2 mM MgCl2, 5% glycerol, room temperature, 1 h; 6% native gel in 1x THEM2", "conditions": "protein: recombinant; tags: C-terminal His6; chain copies: 6; label: 5'-32P"}, "Hfq Y25D [6]": {"target": "T3, Hfq Y25D (Salmonella, UniProt P0A1R0 1-102, Y25D)", "assay": "EMSA; 24 mM Tris-HCl pH 7.5, 50 mM NaCl, 50 mM NH4Cl, 50 mM KCl, 0.5 mM EDTA, 2 mM MgCl2, 5% glycerol, room temperature, 1 h; 6% native gel in 1x THEM2", "conditions": "protein: recombinant; tags: C-terminal His6; chain copies: 6; label: 5'-32P"}, "Hfq K56A [7]": {"target": "T4, Hfq K56A (Salmonella, UniProt P0A1R0 1-102, K56A)", "assay": "EMSA; 24 mM Tris-HCl pH 7.5, 50 mM NaCl, 50 mM NH4Cl, 50 mM KCl, 0.5 mM EDTA, 2 mM MgCl2, 5% glycerol, room temperature, 1 h; 6% native gel in 1x THEM2", "conditions": "protein: recombinant; tags: C-terminal His6; chain copies: 6; label: 5'-32P"}, "Hfq R16A [8]": {"target": "T2, Hfq R16A", "assay": "EMSA; tightest complex; 24 mM Tris-HCl pH 7.5, 50 mM NaCl, 50 mM NH4Cl, 50 mM KCl, 0.5 mM EDTA, 2 mM MgCl2, 5% glycerol, room temperature, 1 h; 6% native gel in 1x THEM2", "conditions": "protein: recombinant; tags: C-terminal His6; chain copies: 6; label: 5'-32P; five stem-loops SL1-SL5"}, "Hfq Y25D [9]": {"target": "T3, Hfq Y25D", "assay": "EMSA; tightest complex; 24 mM Tris-HCl pH 7.5, 50 mM NaCl, 50 mM NH4Cl, 50 mM KCl, 0.5 mM EDTA, 2 mM MgCl2, 5% glycerol, room temperature, 1 h; 6% native gel in 1x THEM2", "conditions": "protein: recombinant; tags: C-terminal His6; chain copies: 6; label: 5'-32P; five stem-loops SL1-SL5"}, "Hfq K56A [10]": {"target": "T4, Hfq K56A", "assay": "EMSA; tightest complex; 24 mM Tris-HCl pH 7.5, 50 mM NaCl, 50 mM NH4Cl, 50 mM KCl, 0.5 mM EDTA, 2 mM MgCl2, 5% glycerol, room temperature, 1 h; 6% native gel in 1x THEM2", "conditions": "protein: recombinant; tags: C-terminal His6; chain copies: 6; label: 5'-32P; five stem-loops SL1-SL5"}},
  "note": "Residue numbers refer to the chain shown, from its start.",
  "data": [
    {"binder": "B1", "values": [
      {"measurement": "binding signal", "setting": "Hfq wt [1]; SL3, SL4, SL5", "result": "~6", "unit": "fold weaker than ompD-187"}
    ]},
    {"binder": "GCCACUGCUUUUCUUU (ssRNA)", "note": "[RybB-16]", "values": [
      {"measurement": "binding result", "setting": "Hfq wt [2]", "result": "no binding"}
    ]},
    {"binder": "GUUAUAUGCCUU (ssRNA)", "note": "[MicC-12]", "values": [
      {"measurement": "binding result", "setting": "Hfq wt [2]", "result": "no binding"}
    ]},
    {"binder": "UAAGUUAGUGGCAGUGGCAGU (ssRNA)", "note": "[ompD-21R]", "values": [
      {"measurement": "binding result", "setting": "Hfq wt [2]", "result": "no binding"}
    ]},
    {"binder": "B2", "values": [
      {"measurement": "Kd", "setting": "Hfq wt [3]", "result": "930 ± 240", "unit": "pM"},
      {"measurement": "Kd", "setting": "Hfq wt [4]", "result": "2900 ± 350", "unit": "pM"},
      {"measurement": "binding signal", "setting": "Hfq R16A [5]", "result": "~6 fold weaker than R16A to ompD-187"},
      {"measurement": "binding signal", "setting": "Hfq Y25D [6]", "result": "~1 fold vs same Hfq mutant to ompD-187 (similar)"},
      {"measurement": "binding signal", "setting": "Hfq K56A [7]", "result": "~1 fold vs same Hfq mutant to ompD-187 (similar)"}
    ]},
    {"binder": "B3", "values": [
      {"measurement": "binding signal", "setting": "Hfq wt [1]; SL2, SL3", "result": "~4 fold tighter than ompD-187"}
    ]},
    {"binder": "B4", "values": [
      {"measurement": "binding signal", "setting": "Hfq wt [1]; SL1, SL2", "result": "~1 fold vs ompD-187 (similar)"}
    ]},
    {"binder": "GCCGAGGUAUAUAACAAA (ssRNA)", "note": "[ompD-18M]", "values": [
      {"measurement": "binding result", "setting": "Hfq wt [2]", "result": "no binding"}
    ]},
    {"binder": "B5", "values": [
      {"measurement": "Kd", "setting": "Hfq wt [3]; five stem-loops SL1-SL5", "result": "610 ± 170", "unit": "pM"},
      {"measurement": "Kd", "setting": "Hfq wt [4]; five stem-loops SL1-SL5", "result": "1900 ± 580", "unit": "pM"},
      {"measurement": "binding signal", "setting": "Hfq R16A [8]", "result": "~1 fold vs wt Hfq (not changed)"},
      {"measurement": "binding signal", "setting": "Hfq Y25D [9]", "result": "~3", "unit": "fold weaker than wt Hfq"},
      {"measurement": "binding signal", "setting": "Hfq K56A [10]", "result": "~2", "unit": "fold weaker than wt Hfq"}
    ]},
    {"binder": "B6", "values": [
      {"measurement": "Kd", "setting": "Hfq wt [3]", "result": "890 ± 93", "unit": "pM"},
      {"measurement": "Kd", "setting": "Hfq wt [4]", "result": "3000 ± 460", "unit": "pM"}
    ]},
    {"binder": "B7", "values": [
      {"measurement": "Kd", "setting": "Hfq wt [3]", "result": "850 ± 3", "unit": "pM"},
      {"measurement": "Kd", "setting": "Hfq wt [4]", "result": "2200 ± 250", "unit": "pM"}
    ]},
    {"binder": "B8", "values": [
      {"measurement": "Kd", "setting": "Hfq wt [3]", "result": "770 ± 97", "unit": "pM"},
      {"measurement": "Kd", "setting": "Hfq wt [4]", "result": "3000 ± 460", "unit": "pM"}
    ]},
    {"binder": "B9", "values": [
      {"measurement": "Kd", "setting": "Hfq wt [3]", "result": "810 ± 90", "unit": "pM"}
    ]},
    {"binder": "B10", "values": [
      {"measurement": "Kd", "setting": "Hfq wt [3]", "result": "820 ± 75", "unit": "pM"},
      {"measurement": "Kd", "setting": "Hfq wt [4]", "result": "2400 ± 290", "unit": "pM"}
    ]},
    {"binder": "B11", "values": [
      {"measurement": "binding signal", "setting": "Hfq R16A [5]", "result": "~10 fold weaker than R16A to ompD-187"},
      {"measurement": "binding signal", "setting": "Hfq wt [1]", "result": "~3", "unit": "fold weaker than ompD-187"},
      {"measurement": "binding signal", "setting": "Hfq Y25D [6]", "result": "~1 fold vs same Hfq mutant to ompD-187 (similar)"},
      {"measurement": "binding signal", "setting": "Hfq K56A [7]", "result": "~1 fold vs same Hfq mutant to ompD-187 (similar)"}
    ]},
    {"binder": "GCCUGCAUUAAUGCCAAC (ssRNA)", "note": "[SdsR-18]", "values": [
      {"measurement": "binding result", "setting": "Hfq wt [2]", "result": "no binding"}
    ]},
    {"binder": "CCUGUUGGCAGCAGGCGUU (ssRNA)", "note": "[ompD-19S]", "values": [
      {"measurement": "binding result", "setting": "Hfq wt [2]", "result": "no binding"}
    ]}
  ]
}
